{"source": "paper PMC9908899", "about": "“TRIM40 is a pathogenic driver of inflammatory bowel disease subverting intestinal barrier integrity” (Nature Communications, 2023)", "binders": {"B1": {"name": "Full length TRIM40 protein (recombinant, for SPR) (natural protein, human, UniProt Q6P9F5 1-258, looked up)", "chain": "MIPLQKDNQEEGVCPICQESLKEAVSTNCGHLFCRVCLTQHVEKASASGVFCCPLCRKPCSEEVLGTGYICPNHQKRVCRFCEESRLLLCVECLVSPEHMSHHELTIENALSHYKERLNRRSRKLRKDIAELQRLKAQQEKKLQALQFQVDHGNHRLEAGPESQHQTREQLGALPQQWLGQLEHMPAEAARILDISRAVTQLRSLVIDLERTAKELDTNTLKNAGDLLNRSAPQKLEVIYPQLEKGVSELLLQPPQKL", "notes": "full length TRIM40 expressed in E. coli BL21 (DE3); source: Escherichia coli BL21 (DE3)"}}, "molecular_target": "T1, ROCK1 kinase domain (residue 1-415) protein (human, UniProt Q13464 1-415)", "T1 construct": "ROCK1 kinase domain, residues 1-415, expressed in Sf9 cells; source: Spodoptera frugiperda cells (Sf9)", "T1 sequence (Q13464 1-415)": "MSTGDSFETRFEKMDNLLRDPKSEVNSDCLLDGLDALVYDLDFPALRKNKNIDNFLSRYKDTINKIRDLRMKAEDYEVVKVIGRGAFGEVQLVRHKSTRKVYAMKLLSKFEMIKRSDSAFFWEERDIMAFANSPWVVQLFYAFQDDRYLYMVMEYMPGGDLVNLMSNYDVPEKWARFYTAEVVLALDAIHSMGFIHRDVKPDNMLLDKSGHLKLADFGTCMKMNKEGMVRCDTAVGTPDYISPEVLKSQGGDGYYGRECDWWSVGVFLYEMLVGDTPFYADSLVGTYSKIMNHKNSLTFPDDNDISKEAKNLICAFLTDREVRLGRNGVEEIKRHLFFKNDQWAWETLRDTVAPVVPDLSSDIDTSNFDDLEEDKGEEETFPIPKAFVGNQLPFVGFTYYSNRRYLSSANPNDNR", "experiment": "SPR; Biacore T200; ROCK1 kinase domain immobilised on CM5 chip by amine coupling (3400 RU); full-length TRIM40 injected at eight concentrations, 30 μl/min, HBS-EP+ buffer (10 mM HEPES, 150 mM NaCl, 3 mM EDTA, 0.05% P20), 25 °C", "conditions": "both partners purified", "data": [{"binder": "B1", "values": [{"measurement": "Kd", "value": 2.25, "unit": "µM"}]}]}
